# Laboratory results reported in the RNAGym collection of RNA variant scans (doi:10.1021/acssynbio.7b00057).
# B1: Pistol ribozyme (parent)
# chain: GGGUCGUUGUUCCAUAAUCGCGUGGAUAUGGCACGCAAGUUUCUACCGGGCACCGUAAAUGUCCGACUGGAGCCGUUCGGGCGGCUAUAAACAGACCUCAGGCCCGAAGCGUGGCGGCACCUGCCGCCGGUGGUAAAAAAGAUCGGAAGAGCACACGUCU
# Variants of: B1
# Assay: aptazyme ON/OFF ratio, guanine; higher = stronger switching; co-transcriptional cleavage with and without guanine
row,Variant,aptazyme ON/OFF ratio
1,GGGUCGCAUAAUUAUAAUCGCGUGGAUAUGGCACGCAAGUUUCUACCGGGCACCGUAAAUGUCCGACUGGAGCCGUUCGGGCGGCUAUAAACAGACCUCAGGCCCGAAGCGUGGCGGCACCUGCCGCCGGUGGUAAAAAAGAUCGGAAGAGCACACGUCU,1.36
2,GGGUCGCAUAAUAAUAAUCGCGUGGAUAUGGCACGCAAGUUUCUACCGGGCACCGUAAAUGUCCGACUGGAGCCGUUCGGGCGGCUAUAAACAGACCUCAGGCCCGAAGCGUGGCGGCACCUGCCGCCGGUGGUAAAAAAGAUCGGAAGAGCACACGUCU,1.2
3,GGGUCGCAUAAUGAUAAUCGCGUGGAUAUGGCACGCAAGUUUCUACCGGGCACCGUAAAUGUCCGACUGGAGCCGUUCGGGCGGCUAUAAACAGACCUCAGGCCCGAAGCGUGGCGGCACCUGCCGCCGGUGGUAAAAAAGAUCGGAAGAGCACACGUCU,1.21
4,GGGUCGCAUACGCAUAAUCGCGUGGAUAUGGCACGCAAGUUUCUACCGGGCACCGUAAAUGUCCGACUGGAGCCGUUCGGGCGGCUAUAAACAGACCUCAGGCCCGAAGCGUGGCGGCACCUGCCGCCGGUGGUAAAAAAGAUCGGAAGAGCACACGUCU,1.28
5,GGGUCGCAUACACAUAAUCGCGUGGAUAUGGCACGCAAGUUUCUACCGGGCACCGUAAAUGUCCGACUGGAGCCGUUCGGGCGGCUAUAAACAGACCUCAGGCCCGAAGCGUGGCGGCACCUGCCGCCGGUGGUAAAAAAGAUCGGAAGAGCACACGUCU,1.15
6,GGGUCGCAUACUCAUAAUCGCGUGGAUAUGGCACGCAAGUUUCUACCGGGCACCGUAAAUGUCCGACUGGAGCCGUUCGGGCGGCUAUAAACAGACCUCAGGCCCGAAGCGUGGCGGCACCUGCCGCCGGUGGUAAAAAAGAUCGGAAGAGCACACGUCU,1.07
7,GGGUCGCAUACGUAUAAUCGCGUGGAUAUGGCACGCAAGUUUCUACCGGGCACCGUAAAUGUCCGACUGGAGCCGUUCGGGCGGCUAUAAACAGACCUCAGGCCCGAAGCGUGGCGGCACCUGCCGCCGGUGGUAAAAAAGAUCGGAAGAGCACACGUCU,1.25
8,GGGUCGCAUACGGAUAAUCGCGUGGAUAUGGCACGCAAGUUUCUACCGGGCACCGUAAAUGUCCGACUGGAGCCGUUCGGGCGGCUAUAAACAGACCUCAGGCCCGAAGCGUGGCGGCACCUGCCGCCGGUGGUAAAAAAGAUCGGAAGAGCACACGUCU,1.19
9,GGGUCGCAUACGAAUAAUCGCGUGGAUAUGGCACGCAAGUUUCUACCGGGCACCGUAAAUGUCCGACUGGAGCCGUUCGGGCGGCUAUAAACAGACCUCAGGCCCGAAGCGUGGCGGCACCUGCCGCCGGUGGUAAAAAAGAUCGGAAGAGCACACGUCU,1.13
10,GGGUCGCAUAUCAAUAAUCGCGUGGAUAUGGCACGCAAGUUUCUACCGGGCACCGUAAAUGUCCGACUGGAGCCGUUCGGGCGGCUAUAAACAGACCUCAGGCCCGAAGCGUGGCGGCACCUGCCGCCGGUGGUAAAAAAGAUCGGAAGAGCACACGUCU,1.2
11,GGGUCGCAUAUCUAUAAUCGCGUGGAUAUGGCACGCAAGUUUCUACCGGGCACCGUAAAUGUCCGACUGGAGCCGUUCGGGCGGCUAUAAACAGACCUCAGGCCCGAAGCGUGGCGGCACCUGCCGCCGGUGGUAAAAAAGAUCGGAAGAGCACACGUCU,1.19
12,GGGUCGCAUAUCGAUAAUCGCGUGGAUAUGGCACGCAAGUUUCUACCGGGCACCGUAAAUGUCCGACUGGAGCCGUUCGGGCGGCUAUAAACAGACCUCAGGCCCGAAGCGUGGCGGCACCUGCCGCCGGUGGUAAAAAAGAUCGGAAGAGCACACGUCU,1.05
13,GGGUCGCAUAACGAUAAUCGCGUGGAUAUGGCACGCAAGUUUCUACCGGGCACCGUAAAUGUCCGACUGGAGCCGUUCGGGCGGCUAUAAACAGACCUCAGGCCCGAAGCGUGGCGGCACCUGCCGCCGGUGGUAAAAAAGAUCGGAAGAGCACACGUCU,1.07
14,GGGUCGCAUAACAAUAAUCGCGUGGAUAUGGCACGCAAGUUUCUACCGGGCACCGUAAAUGUCCGACUGGAGCCGUUCGGGCGGCUAUAAACAGACCUCAGGCCCGAAGCGUGGCGGCACCUGCCGCCGGUGGUAAAAAAGAUCGGAAGAGCACACGUCU,1.13
15,GGGUCGCAUAACUAUAAUCGCGUGGAUAUGGCACGCAAGUUUCUACCGGGCACCGUAAAUGUCCGACUGGAGCCGUUCGGGCGGCUAUAAACAGACCUCAGGCCCGAAGCGUGGCGGCACCUGCCGCCGGUGGUAAAAAAGAUCGGAAGAGCACACGUCU,1.19
16,GGGUCGCAUAACCAUAAUCGCGUGGAUAUGGCACGCAAGUUUCUACCGGGCACCGUAAAUGUCCGACUGGAGCCGUUCGGGCGGCUAUAAACAGACCUCAGGCCCGAAGCGUGGCGGCACCUGCCGCCGGUGGUAAAAAAGAUCGGAAGAGCACACGUCU,1.38
17,GGGUCGCAUAGCCAUAAUCGCGUGGAUAUGGCACGCAAGUUUCUACCGGGCACCGUAAAUGUCCGACUGGAGCCGUUCGGGCGGCUAUAAACAGACCUCAGGCCCGAAGCGUGGCGGCACCUGCCGCCGGUGGUAAAAAAGAUCGGAAGAGCACACGUCU,1.36
18,GGGUCGCAUACCCAUAAUCGCGUGGAUAUGGCACGCAAGUUUCUACCGGGCACCGUAAAUGUCCGACUGGAGCCGUUCGGGCGGCUAUAAACAGACCUCAGGCCCGAAGCGUGGCGGCACCUGCCGCCGGUGGUAAAAAAGAUCGGAAGAGCACACGUCU,1.05

row,Variant,aptazyme ON/OFF ratio
1,GGGUCGCAUACCUAUAAUCGCGUGGAUAUGGCACGCAAGUUUCUACCGGGCACCGUAAAUGUCCGACUGGAGCCGUUCGGGCGGCUAUAAACAGACCUCAGGCCCGAAGCGUGGCGGCACCUGCCGCCGGUGGUAAAAAAGAUCGGAAGAGCACACGUCU,1.06
2,GGGUCGCAUACCAAUAAUCGCGUGGAUAUGGCACGCAAGUUUCUACCGGGCACCGUAAAUGUCCGACUGGAGCCGUUCGGGCGGCUAUAAACAGACCUCAGGCCCGAAGCGUGGCGGCACCUGCCGCCGGUGGUAAAAAAGAUCGGAAGAGCACACGUCU,1.07
3,GGGUCGCAUACCGAUAAUCGCGUGGAUAUGGCACGCAAGUUUCUACCGGGCACCGUAAAUGUCCGACUGGAGCCGUUCGGGCGGCUAUAAACAGACCUCAGGCCCGAAGCGUGGCGGCACCUGCCGCCGGUGGUAAAAAAGAUCGGAAGAGCACACGUCU,1.05
4,GGGUCGCAUAAAAAUAAUCGCGUGGAUAUGGCACGCAAGUUUCUACCGGGCACCGUAAAUGUCCGACUGGAGCCGUUCGGGCGGCUAUAAACAGACCUCAGGCCCGAAGCGUGGCGGCACCUGCCGCCGGUGGUAAAAAAGAUCGGAAGAGCACACGUCU,1.13
5,GGGUCGCAUAAAUAUAAUCGCGUGGAUAUGGCACGCAAGUUUCUACCGGGCACCGUAAAUGUCCGACUGGAGCCGUUCGGGCGGCUAUAAACAGACCUCAGGCCCGAAGCGUGGCGGCACCUGCCGCCGGUGGUAAAAAAGAUCGGAAGAGCACACGUCU,1.19
6,GGGUCGCAUAAAGAUAAUCGCGUGGAUAUGGCACGCAAGUUUCUACCGGGCACCGUAAAUGUCCGACUGGAGCCGUUCGGGCGGCUAUAAACAGACCUCAGGCCCGAAGCGUGGCGGCACCUGCCGCCGGUGGUAAAAAAGAUCGGAAGAGCACACGUCU,1.18
7,GGGUCGCAUACUGAUAAUCGCGUGGAUAUGGCACGCAAGUUUCUACCGGGCACCGUAAAUGUCCGACUGGAGCCGUUCGGGCGGCUAUAAACAGACCUCAGGCCCGAAGCGUGGCGGCACCUGCCGCCGGUGGUAAAAAAGAUCGGAAGAGCACACGUCU,1.13
8,GGGUCGCAUACUUAUAAUCGCGUGGAUAUGGCACGCAAGUUUCUACCGGGCACCGUAAAUGUCCGACUGGAGCCGUUCGGGCGGCUAUAAACAGACCUCAGGCCCGAAGCGUGGCGGCACCUGCCGCCGGUGGUAAAAAAGAUCGGAAGAGCACACGUCU,1.21
9,GGGUCGCAUACUAAUAAUCGCGUGGAUAUGGCACGCAAGUUUCUACCGGGCACCGUAAAUGUCCGACUGGAGCCGUUCGGGCGGCUAUAAACAGACCUCAGGCCCGAAGCGUGGCGGCACCUGCCGCCGGUGGUAAAAAAGAUCGGAAGAGCACACGUCU,1.14
10,GGGUCGCAUACAGAUAAUCGCGUGGAUAUGGCACGCAAGUUUCUACCGGGCACCGUAAAUGUCCGACUGGAGCCGUUCGGGCGGCUAUAAACAGACCUCAGGCCCGAAGCGUGGCGGCACCUGCCGCCGGUGGUAAAAAAGAUCGGAAGAGCACACGUCU,1.17
11,GGGUCGCAUACAAAUAAUCGCGUGGAUAUGGCACGCAAGUUUCUACCGGGCACCGUAAAUGUCCGACUGGAGCCGUUCGGGCGGCUAUAAACAGACCUCAGGCCCGAAGCGUGGCGGCACCUGCCGCCGGUGGUAAAAAAGAUCGGAAGAGCACACGUCU,1.18
12,GGGUCGCAUACAUAUAAUCGCGUGGAUAUGGCACGCAAGUUUCUACCGGGCACCGUAAAUGUCCGACUGGAGCCGUUCGGGCGGCUAUAAACAGACCUCAGGCCCGAAGCGUGGCGGCACCUGCCGCCGGUGGUAAAAAAGAUCGGAAGAGCACACGUCU,1.22
13,GGGUCGCAUAAGAAUAAUCGCGUGGAUAUGGCACGCAAGUUUCUACCGGGCACCGUAAAUGUCCGACUGGAGCCGUUCGGGCGGCUAUAAACAGACCUCAGGCCCGAAGCGUGGCGGCACCUGCCGCCGGUGGUAAAAAAGAUCGGAAGAGCACACGUCU,1.08
14,GGGUCGCAUAAGUAUAAUCGCGUGGAUAUGGCACGCAAGUUUCUACCGGGCACCGUAAAUGUCCGACUGGAGCCGUUCGGGCGGCUAUAAACAGACCUCAGGCCCGAAGCGUGGCGGCACCUGCCGCCGGUGGUAAAAAAGAUCGGAAGAGCACACGUCU,1.28
15,GGGUCGCAUAAGGAUAAUCGCGUGGAUAUGGCACGCAAGUUUCUACCGGGCACCGUAAAUGUCCGACUGGAGCCGUUCGGGCGGCUAUAAACAGACCUCAGGCCCGAAGCGUGGCGGCACCUGCCGCCGGUGGUAAAAAAGAUCGGAAGAGCACACGUCU,1.2
16,GGGUCGCAUAAACAUAAUCGCGUGGAUAUGGCACGCAAGUUUCUACCGGGCACCGUAAAUGUCCGACUGGAGCCGUUCGGGCGGCUAUAAACAGACCUCAGGCCCGAAGCGUGGCGGCACCUGCCGCCGGUGGUAAAAAAGAUCGGAAGAGCACACGUCU,1.1
17,GGGUCGCAUAAUCAUAAUCGCGUGGAUAUGGCACGCAAGUUUCUACCGGGCACCGUAAAUGUCCGACUGGAGCCGUUCGGGCGGCUAUAAACAGACCUCAGGCCCGAAGCGUGGCGGCACCUGCCGCCGGUGGUAAAAAAGAUCGGAAGAGCACACGUCU,1.14
18,GGGUCGCAUAAGCAUAAUCGCGUGGAUAUGGCACGCAAGUUUCUACCGGGCACCGUAAAUGUCCGACUGGAGCCGUUCGGGCGGCUAUAAACAGACCUCAGGCCCGAAGCGUGGCGGCACCUGCCGCCGGUGGUAAAAAAGAUCGGAAGAGCACACGUCU,1.17
